Assay [1] has as its system HDV. The following applies: cited from earlier work.
The test system of assay [2] is HDV. Nature of the assay: Phase 2 LIMT study: Lambda for 48 weeks in HDV patients, with two liver-biopsy case reports. Format: in vivo, human. Set-up: key to fibrosis score (ISHAK) in liver biopsy following Lambda treatment / fibrosis score (ISHAK) in post-treatment biopsy: F5: incomplete cirrhosis; F1: mild portal fibrosis. The source says: See also International Application No. PCT/US2019/048038 for description of this therapy. Impact of Lambda therapy on liver histology was not assessed in the LIMT study. In this example, two case reports of regression of liver fibrosis following treatment in HDV patients from the LIMT study are provided.
Two patients from the LIMT study, who had liver biopsies prior to study randomization, treated with subcutaneous injections of Lambda 180 mcg once weekly for 48 weeks, followed by a 24 week follow-up period, were evaluated with liver biopsy 18 months after last Lambda injection. Liver biopsies, staged according to the ISHAK scoring system, were compared with results of historical biopsies of the patients. HDV RNA viral load and ALT levels were assessed at baseline (BL), end of treatment (EOT) and end of study (EOS). Fibroscan® was performed at BL and EOS.
FibroScan is a specialized ultrasound machine that measures fibrosis (scarring) and steatosis (fatty change) in the liver. The Fibroscan device (Echosens) works by measuring shear wave velocity. In this technique, a 50-MHz wave is passed into the liver from a small transducer on the end of an ultrasound probe. The probe also has a transducer on the end that can measure the velocity of the shear wave (in meters per second) as this wave passes through the liver. The shear wave velocity can then be converted into liver stiffness, which is expressed in kilopascals. Essentially, the technology measures the velocity of the sound wave passing through the liver and then converts that measurement into a liver stiffness measurement; the entire process is often referred to as liver ultrasonographic elastography. See additional discussion in Afdhal, N.H., Gastroenterol Hepatol (N Y). 8(9): 605-607 (2012).

The test system of assay [3] is HDV. The following applies: HBV/HDV co-infected mice; four weeks; cited from earlier work.
For assay [4], the system named is HDV. As to conditions: Lambda for 48 weeks; patients with HDV and compensated liver disease; cited from earlier work.
The subject of the next assay is HBV. The following applies: cited from earlier work.

With interferon alfa, in the assay on HDV [1] (24 weeks post-treatment follow-up), the “patients with undetectable HDV RNA” value was 0%. For the same molecule, the “HDV patients with undetectable HDV RNA” value with HDV [1] (end of 48 weeks treatment, 180 mcg monotherapy, Robogene 2.0 assay) is given as 13%.

B1: Lambda: pegylated form of interferon lambda, a type III interferon signalling through interferon lambda receptors (protein, UniProt Q8IU54 20-200, looked up)
Interferon lambda-1: GPVPTSKPTTTGKGCHIGRFKSLSPQELASFKKARDALEESLKLKNWSCSSPVFPGNWDLRLLQVRERPVALEAELALTLKVLEAAAGPALEDVLDQPLHTLHHILSQLQACIQPQPTAGPRPRGRLHHWLHRLQEAPKKESAGCLEASVTFNLFRLLTRDLKYVADGNLCLRTSTHPEST
modifications: PEG (peginterferon lambda-1a)
notes: pegylated form of interferon lambda, a type III interferon signalling through interferon lambda receptors
Regarding B1, in the assay on HDV [2] (Patient 1, 24 week follow-up after 48 weeks Lambda, BL 3.7 log10), the “HDV RNA level at EOS” value is reported as 2.6 log10. The “Fibroscan score at EOS” value with HDV [2] (Patient 1, BL 20 kPa) is 9.9 kPa; in the assay on HDV [2] (Patient 2, BL 7.7 kPa), 11.1 kPa. The “ALT at EOS” value with HDV [2] (Patient 1, BL 169 U/L) came out at 54 U/L; with HDV [2] (Patient 2, BL 159 U/L), 162 U/L. Also, the “ALT at EOT” value in the assay on HDV [2] (Patient 1, BL 169 U/L) was determined as 55 U/L; in the assay on HDV [2] (Patient 2, BL 159 U/L), 44 U/L. The “HDV RNA level at EOT” value in the assay on HDV [2] (Patient 1, Lambda 180 mcg once weekly 48 weeks, BL 3.7 log10) was “undetectable”. Also, in the assay with HDV [2] (Patient 1, biopsy 18 months after last Lambda injection, historical biopsy F5), the “fibrosis score (ISHAK) in liver biopsy following Lambda treatment” value was “F1”. Besides, the “HDV RNA at EOS” value in the assay on HDV [2] (Patient 2, 24 week follow-up after 48 weeks Lambda, BL 4.9 log10) came to 3.6 log10. Also, the “HDV RNA at EOT” value in the assay with HDV [2] (Patient 2, Lambda 180 mcg once weekly 48 weeks, BL 4.9 log10) is “undetectable”. The “fibrosis score (ISHAK) in post-treatment biopsy” value in the assay with HDV [2] (Patient 2, biopsy 18 months after last Lambda injection, historical biopsy F4 (marked bridging fibrosis)) is listed as “F1”. The “reduction in HDV-RNA levels” value in the assay on HDV [3] is given as 1.5 log. In addition, in the assay with HDV [4], the “durable virologic response (HDV RNA below limit of quantification at 24 weeks post-treatment)” value is on record as 36%. Further, the “difference between pegylated interferon alfa and pegylated interferon lambda treatment” value in the assay on HBV (end of the treatment period) was “no difference”. The “declines in viremia as compared to pegylated interferon alfa” value in the assay on HBV (midpoint of treatment (24 weeks)) was “more pronounced declines in viremia”. Further, the virologic rebound result in the assay on HBV (post-treatment, versus pegylated interferon alfa) is “greater virologic rebound”.

The values are drawn from patent US20240082360A1, “METHODS TO TREAT HEPATITIS DELTA VIRAL INFECTIONS” (Eiger Biopharmaceuticals, Inc., priority 2019, published 2024).
